Laboratory results from ChEMBL document CHEMBL6074635, “Replacement of the essential nitro group by electrophilic warheads towards nitro-free antimycobacterial benzothiazinones” (Eur J Med Chem, 2024).

What was measured:
[1] = substrate: CC(C)=CCC/C(C)=C/CC/C(C)=C/COP(=O)(O)O[C@@H]1O[C@H](CO)[C@@H](O)[C@H]1O; assay: (§1) Substrate activity at recombinant Mycobacterium tuberculosis DprE1 extracted from Escherichia coli BL21(DE3) assessed as Km incubated for 60 mins by resazurin dye based fluorescence plate reader analysis
[2] = substrate: CC(C)=CCC/C(C)=C/CC/C(C)=C/CC/C(C)=C/COP(=O)(O)OC1O[C@H](CO)[C@@H](O)[C@H]1O; assay: as §1

B1: Decaprenylphosphoryl-beta-D-ribose oxidase (Mycobacterium tuberculosis (strain ATCC 25618 / H37Rv)), P9WJF1 (protein)
chain: MLSVGATTTATRLTGWGRTAPSVANVLRTPDAEMIVKAVARVAESGGGRGAIARGLGRSYGDNAQNGGGLVIDMTPLNTIHSIDADTKLVDIDAGVNLDQLMKAALPFGLWVPVLPGTRQVTVGGAIACDIHGKNHHSAGSFGNHVRSMDLLTADGEIRHLTPTGEDAELFWATVGGNGLTGIIMRATIEMTPTSTAYFIADGDVTASLDETIALHSDGSEARYTYSSAWFDAISAPPKLGRAAVSRGRLATVEQLPAKLRSEPLKFDAPQLLTLPDVFPNGLANKYTFGPIGELWYRKSGTYRGKVQNLTQFYHPLDMFGEWNRAYGPAGFLQYQFVIPTEAVDEFKKIIGVIQASGHYSFLNVFKLFGPRNQAPLSFPIPGWNICVDFPIKDGLGKFVSELDRRVLEFGGRLYTAKDSRTTAETFHAMYPRVDEWISVRRKVDPLRVFASDMARRLELL
Question: Which Km [1] does the source give for B1 here?
Answer: The Km was 740 µM.

Question: What about the Km [2] of the same protein?
Answer: Its Km is 33 µM.
